Results on six sequences are retold here after the DeepSol protein solubility set.

The data set is described as follows: soluble on expression in E. coli; label from the status in PepcDB or PDB records.
With “MASLAAVVRALLRRESQRATGYALREWTMLTARHLPYLQGQLTLGRIAAVGHLQRSTLGRSEWHTSSAPLFGEGRGRWHWGLSTSDVVDGSDHEHHSTETGGRELPSFKTGELGSDVDGDRAALEAWLAQIRDETSGWPELSLDALRDELDEELEGDDDDNDDDDDETYENEELLKALQEAVNRHRTPVVALVSGRVVHLRRTAAPKRSPRAGRVPRNEPQTTSRDTTKADANDNECT”, the “soluble on expression in E. coli” value was “soluble”.

Turning to “MGHDIDQVAPLLREPANFQLRTNCDPHEDNFGLRAHGPLVRIVGESSTQLGRDFVWQAHGYEVVRRILGDHEHFTTRPQFTQSKSGAHVEAQFVGQISTYDPPEHTRLRKMLTPEFTVRRIRRMEPAIQSLIDDRLDLLEAEGPSADLQGLFADPVGAHALCELLGIPRDDQREFVRRIRRNADLSRGLKARAADSAAFNRYLDNLLARQRADPDDGLLGMIVRDHGDNVTDEELKGLCTALILGGVETVAGMIGFGVLALLDNPGQIELLFESPEKAERVVNELVRYLSPVQAPNPRLAIKDVVIDGQLIKAGDYVLCSILMANRDEALTPDPDVLDANRAAVSDVGFGHGIHYCVGAALARSMLRMAYQTLWRRFPGLRLAVPIEEVKYRSAFVDCPDQVPVTW”, the “soluble on expression in E. coli” value was “soluble”. As for “MGSDKIHHHHHHMLNVSIVIPAWNEQERINDCLLNATRQTVMPHEVIVVDNRSTDSTVAVVEQFMKDHPEAPVKLLHQDDEQGLIPTRDYGLNHATGDILGRFDADCMIRPDWVEVVSGIFTEDPDAMGATGPVMYYDLPSRHFGLRGDNSTRKRIYRADDGQPLLFGSNMALRATAWREIADEVCQDKADVMHEDIDISLHLLGKDLKTVYCPRMIAGISARRMDTSPASFLNYMRRFKNTFNAHPQHYRKHKPEILITALYPVMHLLYPVWQKVLNTADINPAEAAWINEQMELAEQEGHELYDDTPTDEEWSEKHEE”, the “soluble on expression in E. coli” value is recorded as “not soluble”. As for “MTNKKKEITIHSSAAEYLTYVASTGRNSDSFEMRYEDENIWLTQKMMATLYDVSVSAINQHLKRIFEDDELVEESVIKKYLITASDGKSYSTKHYNLQAIIAVGFKVNNDRAVRFRKWAGQIVKDYTIQGWTMDKERLKKGHMFTDEYFERQLENIREIRLSERKFYQKVTDLYATAFDYDKDAKTTRQFFKMVQNKMHWAVHRHTAAELIVERANAEKEHMGLTTWESAPDGKIVKADVTVAKNYLSEKEMSYLQRIVSLYLDYAELQAERRIPMSMEDWAKRLDGFLEFNGNELLMGLGKVSAEQAKLHAETEFEKYRIVQDRLFMSDYDKYLIELEHQADQSDV”, the “soluble on expression in E. coli” value is “not soluble”.

Turning to “MAKENPPIVFGPVLSRRFGKSLGVDLSPSKKQCNYNCIYCELGKAKPIERMEEVIKVETLINAIQNALNNLTTPIDVLTITANGEPTLYPHLLELIQSIKPFLKGVKTLILSNGSLFYEPKVQQALKEFDIVKFSLDAIDLKAFERVDKPYSKDINKILEGILRFSQIYQGQLVAEVLLIKGVNDSANNLKLIAAFLKQINIARVDLSTIDRPSSFKAPKLSEDELLKCSLFFEGLCVSLPKRSITQAKKLISCGIDELLALISRRPLSAEEAPLILDSNAFKHLETLLNHKQITIKKVGSLEFYCAFLEHHHHHH”, the “soluble on expression in E. coli” value is “not soluble”. Take “MSLRSDSFEILRDCRALFLKHLGALLLDSGIISGSAIRAIQEGAGAYFDEMVSTTRRGSFSEEAHGLTSSRITLVGEDDLELGIRLDNLSARLFETTGGSLWRTHLRFVTLLRRPDLPKSANPIGPKGICQGLTTMFAASGASSIEQKLALLDRIEVYLLANLPGLYAEINDFLDRGGIEAAQATILGSPDGPKQADQSSANPLLALQQQLLARLPGGIASIQPPTGTGGAAASLLSQASLEQLIFRLNELDRQGAFRAQFKPGTSLSTESLIPELFSGSTAKASLPKALNSAELGIPSTATEGLAIDTLAIIFEAIFSEPTLPDTLKAAISSLQITLLKMAMKDASLFTDDKHPARLVIDRMGQAVLGLPTDVPARHPVCARLFEIASQLRSGNGDISAFQSALTQLDALVAERNNELAKSAAAYLPLLRQLDRRDEASIQTRHILDKLIEQKPPEAVQAFLNESWRKVLQLVWLENGPDSSQWQAHVTAIEELLWSFQPKTDPAERKSLAHRLPNILKLLKTGMERIGLPTEAQEAFLDDCFTLQTQALRAAPAAETGATSVIAATGLHASGSETVYGDVQSGQFVLNTLDFSDYQPGPARSLSCAIGDWLELRIDDSTTRVARICYISPNSQRTLLLNPDFGLALAIHPAILDRQLRAGEARIRSASSLFEIAASRALQKTTTNEGHHHHHH”: the “soluble on expression in E. coli” value is recorded as “soluble”.
